Sequences and labels used below:
B1: GA-binding protein alpha chain, residues 172 to 250; numbered along this chain, Q06546 (parent)
chain: GYRKEQERLGIPYDPIQWSTDQVLHWVVWVMKEFSMTDIDLTTLNISGRELCSLNQEDFFQRVPRGEILWSHLELLRKY

± gives the uncertainty stated by the source.

This data set covers variants of B1. Kind of data set: abundance fitness (aPCA) (normalised: wild type 0, dead -1); higher = more abundant; growth selection in yeast, the domain comes from the species named. The settings on record: Homo sapiens.
Regarding GYRKEQERLGIPYDPIQWSTDQVLHWVVWVMKEFSMTDIDLTTLNISGRELCSLNQEDFFQRVPRGEILWSSLELLRKY [H72S], the abundance fitness is -0.143 ± 0.035. Take GYRKEQERLGIPYDPIQWSTDQVLHWVVWVMKEFSMTDIDLTTLNISGRELCSLNQEDFFQRVPRGEILWSRLELLRKY [H72R]: the abundance fitness is -0.295 ± 0.032.

Regarding GYRKEQERLGIPYDPIQWSTDQVLHWVVWVMKEFSMTDIDLTTLNISGRELCSLNQEDFFQRVPRGEILWSTLELLRKY [H72T], the abundance fitness was -0.38 ± 0.046. Consider GYRKEQERLGIPYDPIQWSTDQVLHWVVWVMKEFSMTDIDLTTLNISGRELCSLNQEDFFQRVPRGEILWSALELLRKY [H72A], for which the abundance fitness is -0.244 ± 0.043. Turning to GYRKEQERLGIPYDPIQWSTDQVLHWVVWVMKEFSMTDIDLTTLNISGRELCSLNQEDFFQRVPRGEILWSDLELLRKY [H72D], the abundance fitness was -0.214 ± 0.091.

As to GYRKEQERLGIPYDPIQWSTDQVLHWVVWVMKEFSMTDIDLTTLNISGRELCSLNQEDFFQRVPRGEILWSKLELLRKY [H72K], the abundance fitness was -0.282 ± 0.12.

In the case of GYRKEQERLGIPYDPIQWSTDQVLHWVVWVMKEFSMTDIDLTTLNISGRELCSLNQEDFFQRVPRGEILWSELELLRKY [H72E], the abundance fitness came out at 0.009 ± 0.081. GYRKEQERLGIPYDPIQWSTDQVLHWVVWVMKEFSMTDIDLTTLNISGRELCSLNQEDFFQRVPRGEILWSVLELLRKY [H72V]: the abundance fitness was -0.554 ± 0.051. GYRKEQERLGIPYDPIQWSTDQVLHWVVWVMKEFSMTDIDLTTLNISGRELCSLNQEDFFQRVPRGEILWSYLELLRKY [H72Y]: the abundance fitness is -0.46 ± 0.15. GYRKEQERLGIPYDPIQWSTDQVLHWVVWVMKEFSMTDIDLTTLNISGRELCSLNQEDFFQRVPRGEILWSMLELLRKY [H72M]: the abundance fitness is -0.322 ± 0.055. As for GYRKEQERLGIPYDPIQWSTDQVLHWVVWVMKEFSMTDIDLTTLNISGRELCSLNQEDFFQRVPRGEILWSWLELLRKY [H72W], the abundance fitness is -1.02 ± 0.16.

For GYRKEQERLGIPYDPIQWSTDQVLHWVVWVMKEFSMTDIDLTTLNISGRELCSLNQEDFFQRVPRGEILWSFLELLRKY [H72F], the abundance fitness is -0.888 ± 0.34.

On to GYRKEQERLGIPYDPIQWSTDQVLHWVVWVMKEFSMTDIDLTTLNISGRELCSLNQEDFFQRVPRGEILWSQLELLRKY [H72Q], for which the abundance fitness turned out to be 0.019 ± 0.061. In the case of GYRKEQERLGIPYDPIQWSTDQVLHWVVWVMKEFSMTDIDLTTLNISGRELCSLNQEDFFQRVPRGEILWSILELLRKY [H72I], the abundance fitness is -0.338 ± 0.16. In the case of GYRKEQERLGIPYDPIQWSTDQVLHWVVWVMKEFSMTDIDLTTLNISGRELCSLNQEDFFQRVPRGEILWSLLELLRKY [H72L], the abundance fitness is -0.751 ± 0.056. On to GYRKEQERLGIPYDPIQWSTDQVLHWVVWVMKEFSMTDIDLTTLNISGRELCSLNQEDFFQRVPRGEILWSPLELLRKY [H72P], for which the abundance fitness was -1 ± 0.12. Then GYRKEQERLGIPYDPIQWSTDQVLHWVVWVMKEFSMTDIDLTTLNISGRELCSLNQEDFFQRVPRGEILWSHLALLRKY [E74A], with -0.061 ± 0.044. For GYRKEQERLGIPYDPIQWSTDQVLHWVVWVMKEFSMTDIDLTTLNISGRELCSLNQEDFFQRVPRGEILWSHLCLLRKY [E74C], the abundance fitness was -0.138 ± 0.1.

With GYRKEQERLGIPYDPIQWSTDQVLHWVVWVMKEFSMTDIDLTTLNISGRELCSLNQEDFFQRVPRGEILWSHLFLLRKY [E74F], the abundance fitness is -0.322 ± 0.1. As to GYRKEQERLGIPYDPIQWSTDQVLHWVVWVMKEFSMTDIDLTTLNISGRELCSLNQEDFFQRVPRGEILWSHLDLLRKY [E74D], the abundance fitness is -0.023 ± 0.058. Turning to GYRKEQERLGIPYDPIQWSTDQVLHWVVWVMKEFSMTDIDLTTLNISGRELCSLNQEDFFQRVPRGEILWDHLELLRKY [S71D], the abundance fitness came to 0.027 ± 0.074.

As for GYRKEQERLGIPYDPIQWSTDQVLHWVVWVMKEFSMTDIDLTTLNISGRELCSLNQEDFFQRVPRGEILWAHLELLRKY [S71A], the abundance fitness is -0.046 ± 0.039. In the case of GYRKEQERLGIPYDPIQWSTDQVLHWVVWVMKEFSMTDIDLTTLNISGRELCSLNQEDFFQRVPRGEILWMHLELLRKY [S71M], the abundance fitness was -0.162 ± 0.076.

Consider GYRKEQERLGIPYDPIQWSTDQVLHWVVWVMKEFSMTDIDLTTLNISGRELCSLNQEDFFQRVPRGEILWWHLELLRKY [S71W], for which the abundance fitness was -0.042 ± 0.032.

As to GYRKEQERLGIPYDPIQWSTDQVLHWVVWVMKEFSMTDIDLTTLNISGRELCSLNQEDFFQRVPRGEILWRHLELLRKY [S71R], the abundance fitness was -0.034 ± 0.036. Consider GYRKEQERLGIPYDPIQWSTDQVLHWVVWVMKEFSMTDIDLTTLNISGRELCSLNQEDFFQRVPRGEILWVHLELLRKY [S71V], for which the abundance fitness was -0.131 ± 0.046. Regarding GYRKEQERLGIPYDPIQWSTDQVLHWVVWVMKEFSMTDIDLTTLNISGRELCSLNQEDFFQRVPRGEILWGHLELLRKY [S71G], the abundance fitness is -0.01 ± 0.034. Take GYRKEQERLGIPYDPIQWSTDQVLHWVVWVMKEFSMTDIDLTTLNISGRELCSLNQEDFFQRVPRGEILWYHLELLRKY [S71Y]: the abundance fitness is -0.027 ± 0.18. For GYRKEQERLGIPYDPIQWSTDQVLHWVVWVMKEFSMTDIDLTTLNISGRELCSLNQEDFFQRVPRGEILWCHLELLRKY [S71C], the abundance fitness is -0.167 ± 0.067.

Regarding GYRKEQERLGIPYDPIQWSTDQVLHWVVWVMKEFSMTDIDLTTLNISGRELCSLNQEDFFQRVPRGEILWNHLELLRKY [S71N], the abundance fitness was -0.115 ± 0.06. GYRKEQERLGIPYDPIQWSTDQVLHWVVWVMKEFSMTDIDLTTLNISGRELCSLNQEDFFQRVPRGEILWFHLELLRKY [S71F]: the abundance fitness is -0.102 ± 0.07. As for GYRKEQERLGIPYDPIQWSTDQVLHWVVWVMKEFSMTDIDLTTLNISGRELCSLNQEDFFQRVPRGEILWLHLELLRKY [S71L], the figure is -0.156 ± 0.04; as for GYRKEQERLGIPYDPIQWSTDQVLHWVVWVMKEFSMTDIDLTTLNISGRELCSLNQEDFFQRVPRGEILWIHLELLRKY [S71I], -0.157 ± 0.059. Consider GYRKEQERLGIPYDPIQWSTDQVLHWVVWVMKEFSMTDIDLTTLNISGRELCSLNQEDFFQRVPRGEILWKHLELLRKY [S71K], for which the abundance fitness was -0.102 ± 0.084.
